Source: US10562947B2, “Compositions and methods for preventing or treating diseases, conditions or processes characterized by aberrant fibroblast proliferation and extracellular matrix deposition” (MOERAE MATRIX, INC., priority 2011, dated 2020)

Legend:
Test in all cases: Kinase Profiling Assay
Type in all cases: biochemical
Details in all cases: 100 μM peptide
[1] = target: CHK2(I157T)(h) (Homo sapiens, UniProt O96017, I157T)
How it was run: (§1)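 Peptides designed to inhibit MK2 were checked against a broad human kinase panel (266 enzymes), with duplicate measurement of every activity.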

[2] = target: T1, EphB2(h) (Homo sapiens, UniProt P29323)
T1 sequence (P29323 19-1055): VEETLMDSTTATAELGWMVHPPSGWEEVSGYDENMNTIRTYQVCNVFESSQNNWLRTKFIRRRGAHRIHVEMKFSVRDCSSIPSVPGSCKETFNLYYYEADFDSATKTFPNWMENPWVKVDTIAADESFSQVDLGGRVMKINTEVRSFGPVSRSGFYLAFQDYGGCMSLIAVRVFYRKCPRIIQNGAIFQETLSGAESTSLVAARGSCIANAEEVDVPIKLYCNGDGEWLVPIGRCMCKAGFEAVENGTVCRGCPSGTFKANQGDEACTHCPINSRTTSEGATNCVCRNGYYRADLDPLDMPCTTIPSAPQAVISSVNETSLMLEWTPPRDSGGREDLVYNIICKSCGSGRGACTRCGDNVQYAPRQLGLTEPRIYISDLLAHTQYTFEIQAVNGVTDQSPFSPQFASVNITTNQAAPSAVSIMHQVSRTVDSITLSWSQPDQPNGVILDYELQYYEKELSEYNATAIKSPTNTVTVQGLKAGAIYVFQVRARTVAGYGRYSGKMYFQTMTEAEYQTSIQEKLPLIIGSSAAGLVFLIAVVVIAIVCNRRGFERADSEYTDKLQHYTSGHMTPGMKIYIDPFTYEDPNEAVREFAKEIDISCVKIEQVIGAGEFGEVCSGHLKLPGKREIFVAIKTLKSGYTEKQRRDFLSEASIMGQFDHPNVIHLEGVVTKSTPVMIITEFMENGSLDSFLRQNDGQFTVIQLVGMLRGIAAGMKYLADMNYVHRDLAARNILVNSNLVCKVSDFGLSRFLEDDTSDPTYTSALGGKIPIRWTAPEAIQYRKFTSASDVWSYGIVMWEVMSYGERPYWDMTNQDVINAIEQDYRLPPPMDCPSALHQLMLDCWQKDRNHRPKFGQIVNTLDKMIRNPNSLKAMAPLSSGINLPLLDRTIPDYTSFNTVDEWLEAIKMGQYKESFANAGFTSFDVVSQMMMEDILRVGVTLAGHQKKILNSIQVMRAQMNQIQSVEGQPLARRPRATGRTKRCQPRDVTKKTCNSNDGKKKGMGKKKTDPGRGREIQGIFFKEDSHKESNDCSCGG
How it was run: as §1

[3] = target: LOK(h) (Homo sapiens, UniProt O94804)
How it was run: as §1

[4] = target: T2, NEK3(h) (Homo sapiens, UniProt P51956)
T2 sequence (P51956 1-506): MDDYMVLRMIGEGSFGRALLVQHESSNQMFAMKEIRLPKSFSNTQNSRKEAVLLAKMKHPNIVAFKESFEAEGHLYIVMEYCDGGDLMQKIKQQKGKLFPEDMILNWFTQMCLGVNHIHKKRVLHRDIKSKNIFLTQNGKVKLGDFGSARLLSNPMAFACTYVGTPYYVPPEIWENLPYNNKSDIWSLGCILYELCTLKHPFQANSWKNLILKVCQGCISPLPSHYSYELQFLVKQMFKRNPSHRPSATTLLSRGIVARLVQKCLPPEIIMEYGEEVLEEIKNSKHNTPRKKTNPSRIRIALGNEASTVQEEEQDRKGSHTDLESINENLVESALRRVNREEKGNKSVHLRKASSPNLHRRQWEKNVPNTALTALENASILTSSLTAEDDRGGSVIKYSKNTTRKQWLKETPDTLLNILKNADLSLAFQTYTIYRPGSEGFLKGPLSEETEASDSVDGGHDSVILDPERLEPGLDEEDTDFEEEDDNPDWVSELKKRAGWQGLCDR
How it was run: as §1

[5] = target: SAPK2b(h) (Homo sapiens, UniProt Q15759)
How it was run: as §1

[6] = target: T3, EphA3(h) (Homo sapiens, UniProt P29320)
T3 sequence (P29320 21-983): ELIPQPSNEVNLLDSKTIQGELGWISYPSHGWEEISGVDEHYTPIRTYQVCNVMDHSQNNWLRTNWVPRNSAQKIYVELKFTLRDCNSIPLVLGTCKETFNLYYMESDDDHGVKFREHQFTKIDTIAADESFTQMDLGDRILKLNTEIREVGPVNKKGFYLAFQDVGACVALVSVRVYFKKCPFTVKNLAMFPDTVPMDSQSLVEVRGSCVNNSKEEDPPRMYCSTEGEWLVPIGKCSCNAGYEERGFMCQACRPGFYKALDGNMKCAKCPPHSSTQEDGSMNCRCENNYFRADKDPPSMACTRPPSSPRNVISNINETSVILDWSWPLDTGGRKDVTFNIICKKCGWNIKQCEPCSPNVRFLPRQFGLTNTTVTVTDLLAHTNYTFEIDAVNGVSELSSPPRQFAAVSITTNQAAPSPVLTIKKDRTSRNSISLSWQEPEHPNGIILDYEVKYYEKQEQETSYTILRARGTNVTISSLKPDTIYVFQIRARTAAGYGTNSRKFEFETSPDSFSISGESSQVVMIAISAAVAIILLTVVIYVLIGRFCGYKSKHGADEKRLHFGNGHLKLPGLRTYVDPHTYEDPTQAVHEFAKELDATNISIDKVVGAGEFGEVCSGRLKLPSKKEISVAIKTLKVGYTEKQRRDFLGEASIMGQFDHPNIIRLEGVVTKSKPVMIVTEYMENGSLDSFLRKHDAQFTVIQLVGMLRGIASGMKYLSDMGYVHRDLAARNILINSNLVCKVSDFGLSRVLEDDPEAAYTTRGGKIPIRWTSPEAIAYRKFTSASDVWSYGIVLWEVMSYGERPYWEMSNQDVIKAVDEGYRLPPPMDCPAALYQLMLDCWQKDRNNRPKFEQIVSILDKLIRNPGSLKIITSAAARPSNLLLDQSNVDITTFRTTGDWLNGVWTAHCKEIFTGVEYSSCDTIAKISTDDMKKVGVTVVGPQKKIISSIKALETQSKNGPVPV
How it was run: as §1

[7] = target: T4, GSK3α(h) (Homo sapiens, UniProt P49840)
T4 construct: purchased Millipore
How it was run: as §1

[8] = target: T5, Ret(V804M)(h) (Homo sapiens, UniProt P07949, V804M)
T5 construct: purchased Millipore (IC50 Profiler Express service)
How it was run: as §1

Sequence of LOK(h) (O94804 whole entry): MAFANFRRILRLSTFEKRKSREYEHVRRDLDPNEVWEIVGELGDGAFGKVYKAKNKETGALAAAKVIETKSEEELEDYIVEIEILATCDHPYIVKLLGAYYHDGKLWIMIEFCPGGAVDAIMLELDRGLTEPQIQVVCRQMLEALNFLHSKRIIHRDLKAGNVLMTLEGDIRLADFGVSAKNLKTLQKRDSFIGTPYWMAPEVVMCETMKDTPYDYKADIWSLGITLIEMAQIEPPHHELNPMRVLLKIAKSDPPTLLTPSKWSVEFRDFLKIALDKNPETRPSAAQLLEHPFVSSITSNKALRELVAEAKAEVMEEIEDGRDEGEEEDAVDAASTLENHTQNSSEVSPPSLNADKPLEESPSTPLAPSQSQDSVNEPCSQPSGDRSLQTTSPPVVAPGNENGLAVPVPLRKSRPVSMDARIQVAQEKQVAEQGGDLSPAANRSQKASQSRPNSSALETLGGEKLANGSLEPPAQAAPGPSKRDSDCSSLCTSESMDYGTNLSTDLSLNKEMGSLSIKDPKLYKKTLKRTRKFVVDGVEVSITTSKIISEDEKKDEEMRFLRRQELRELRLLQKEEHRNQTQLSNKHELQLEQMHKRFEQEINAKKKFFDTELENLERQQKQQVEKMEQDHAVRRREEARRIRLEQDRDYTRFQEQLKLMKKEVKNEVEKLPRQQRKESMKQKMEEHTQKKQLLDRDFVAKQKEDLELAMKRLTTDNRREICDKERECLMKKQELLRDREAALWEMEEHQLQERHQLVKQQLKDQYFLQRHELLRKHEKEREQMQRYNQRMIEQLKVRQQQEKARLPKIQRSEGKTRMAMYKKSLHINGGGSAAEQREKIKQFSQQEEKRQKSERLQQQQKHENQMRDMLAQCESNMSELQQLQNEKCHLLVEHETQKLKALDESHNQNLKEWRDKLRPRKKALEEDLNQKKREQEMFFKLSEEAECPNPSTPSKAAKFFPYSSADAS
Sequence of SAPK2b(h) (Q15759 whole entry): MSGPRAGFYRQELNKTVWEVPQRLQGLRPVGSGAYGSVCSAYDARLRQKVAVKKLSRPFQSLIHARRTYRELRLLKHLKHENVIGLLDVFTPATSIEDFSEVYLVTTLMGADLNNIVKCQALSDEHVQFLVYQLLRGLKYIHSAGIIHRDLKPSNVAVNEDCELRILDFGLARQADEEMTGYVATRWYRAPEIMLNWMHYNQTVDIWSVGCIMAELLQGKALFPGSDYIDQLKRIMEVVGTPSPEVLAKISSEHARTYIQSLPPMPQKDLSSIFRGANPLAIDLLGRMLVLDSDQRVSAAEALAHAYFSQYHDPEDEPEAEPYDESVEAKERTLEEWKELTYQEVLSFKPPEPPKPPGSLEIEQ
T4 sequence (P49840 whole entry): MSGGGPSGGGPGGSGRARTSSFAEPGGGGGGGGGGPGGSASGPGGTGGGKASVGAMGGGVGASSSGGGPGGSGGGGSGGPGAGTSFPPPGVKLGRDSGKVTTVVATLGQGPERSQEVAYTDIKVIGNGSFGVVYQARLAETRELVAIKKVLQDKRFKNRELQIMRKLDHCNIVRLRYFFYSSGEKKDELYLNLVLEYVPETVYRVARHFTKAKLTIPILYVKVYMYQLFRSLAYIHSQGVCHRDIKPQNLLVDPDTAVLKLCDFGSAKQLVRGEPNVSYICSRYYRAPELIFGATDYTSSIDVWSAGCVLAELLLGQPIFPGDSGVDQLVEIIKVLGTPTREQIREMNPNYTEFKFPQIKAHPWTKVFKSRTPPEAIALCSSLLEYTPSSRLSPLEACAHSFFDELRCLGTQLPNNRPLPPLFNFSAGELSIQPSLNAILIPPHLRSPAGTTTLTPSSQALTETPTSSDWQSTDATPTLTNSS
Sequence of CHK2(I157T)(h) (O96017 whole entry I157T): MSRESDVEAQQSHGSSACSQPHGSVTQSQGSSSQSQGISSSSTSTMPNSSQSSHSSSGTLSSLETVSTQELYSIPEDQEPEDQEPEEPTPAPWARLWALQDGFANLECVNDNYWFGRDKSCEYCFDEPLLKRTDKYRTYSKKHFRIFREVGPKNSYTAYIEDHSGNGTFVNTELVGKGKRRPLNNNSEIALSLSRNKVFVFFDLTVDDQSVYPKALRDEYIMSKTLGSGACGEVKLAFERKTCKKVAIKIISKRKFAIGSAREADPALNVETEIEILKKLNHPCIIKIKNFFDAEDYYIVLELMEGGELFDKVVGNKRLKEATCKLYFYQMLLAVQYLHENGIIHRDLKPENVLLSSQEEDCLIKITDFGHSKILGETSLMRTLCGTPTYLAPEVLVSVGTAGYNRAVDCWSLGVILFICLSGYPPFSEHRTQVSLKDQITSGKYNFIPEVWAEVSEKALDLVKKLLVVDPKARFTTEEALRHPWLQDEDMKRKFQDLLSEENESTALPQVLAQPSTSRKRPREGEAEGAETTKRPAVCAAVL

| Sequence | CHK2(I157T)(h) % activity [1] [%] | EphB2(h) % activity [2] [%] | LOK(h) % activity [3] [%] | NEK3(h) % activity [4] [%] | SAPK2b(h) % activity [5] [%] | EphA3(h) % activity [6] [%] | GSK3α(h) % activity [7] [%] | Ret(V804M)(h) % activity [8] [%] |
| --- | --- | --- | --- | --- | --- | --- | --- | --- |
| YARAAARQARAKALNRQLGVA (Mammalian) [MMI-0200] | 85 | 128 | 67 | 100 | 95 | – | – | – |
| HRRIKAWLKKIKALARQLGVAA (Mammalian) [MMI-0500] | 3 | 70 | 7 | 20 | 42 | 33 | 175 | 36 |
| KAFAKLAARLYRKALARQLGVAA [MMI-0400] | 41 | 22 | 18 | 85 | 82 | 12 | 164 | 87 |
| FAKLAARLYRKALARQLGVAA [MMI-0300] | 43 | 18 | 37 | 92 | 81 | 6 | 157 | 95 |
